Data on three molecules can be found in US20150111836, “CELLULAR APOBEC3 PROTEINS AND MODULATORS THEREOF FOR REGULATING DNA REPAIR PROCESSES AND TREATING PROLIFERATIVE DISEASES” (YISSUM RESEARCH DEVELOPMENT COMPANY OF THE HEBREW …, published 2015).

Series [1] deals with APOBEC3G W285A (Homo sapiens, UniProt Q9HC16 SEQ:1-384). The series can be described thus: EMSA; binding similar to wild type. As to conditions: tags: C-terminal His6, expressed in 293T cells; label: 3' dATP-biotin (TdT). As for the experimental part: (§1) FIG. 3B. Electro-mobility shift assay (EMSA). The indicated proteins were incubated with biotinylated SC oligonucleotides (80 nt) for 8 min at 37° C. and resolved by native PAGE. Acrylamide gels were transferred to nylon membranes and probed by enhanced chemiluminescence.
Chain of APOBEC3G W285A (Q9HC16 whole entry W285A): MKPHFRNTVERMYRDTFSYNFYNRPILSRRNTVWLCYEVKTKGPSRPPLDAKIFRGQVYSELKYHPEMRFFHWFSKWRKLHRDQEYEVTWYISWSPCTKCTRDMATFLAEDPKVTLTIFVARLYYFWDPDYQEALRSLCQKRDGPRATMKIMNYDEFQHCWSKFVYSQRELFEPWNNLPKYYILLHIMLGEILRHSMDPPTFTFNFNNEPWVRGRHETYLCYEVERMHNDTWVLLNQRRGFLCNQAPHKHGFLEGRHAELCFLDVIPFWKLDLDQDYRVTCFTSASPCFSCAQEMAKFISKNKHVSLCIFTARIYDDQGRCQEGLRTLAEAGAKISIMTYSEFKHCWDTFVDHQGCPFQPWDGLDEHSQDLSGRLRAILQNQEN
Background: In EMSA bound probe runs differently from free probe, usually more slowly.

The target in series [2] is T1, APOBEC3G (A3G) (Homo sapiens, UniProt Q9HC16 SEQ:1-384). The series can be described thus: EMSA; 8 min 37 C; RPA pre-binding inhibits monomeric complex (FIG. 5C). As to conditions: tags: C-terminal Myc-His6, expressed in 293T cells; chain copies: monomer to multimer (stated); label: 3' dATP-biotin (TdT). The procedure:
as §1

In series [3] the target is T1, APOBEC3G (A3G). Nature of the series: EMSA; 8 min RT. As to conditions: tags: C-terminal Myc-His6, expressed in 293T cells; chain copies: monomer to multimer (stated). The procedure:
(§2) FIG. 2D. A3G end-dependent association with ssDNA was assessed by electro-mobility shift assay (EMSA). S₁₆₀ oligonucleotide ends (3′, 5′, 3′+5′) were annealed to short complementary oligonucleotides (30 nt) and then incubated with A3G or BSA for 8 min at room temperature (RT). Acrylamide gels were stained with SYBR gold nucleic acid stain.

Series [4] addresses T1, APOBEC3G (A3G). The series can be described thus: EMSA; either 3' or 5' ssDNA terminus required; 5' preference. As to conditions: tags: C-terminal Myc-His6, expressed in 293T cells, chain copies: monomer to multimer (stated), 3' end 30 nt duplex. As for the experimental part:
as §2

T1 sequence (Q9HC16 whole entry): as the sequence (Q9HC16 whole entry W285A) above, with A285W counted along it

B1: SC (ssDNA)
DNA: GGATTGGTTGGTTATTTGTTTAAGGAAGGTGGATTAAAGGCCCATAAGGTGATGGAAGTTATGTTTGGTAGATTGATGG
Take B1: the binding result in series [1] and in series [2] was “binds” each time.

B2: S160 (ssDNA)
DNA: GGATTGGTTGGTTATTTGTTTAAGGAAGGAAGAAGGAAGGCCCAATAAGGGAAGGCCCAATAAGTGGGAAGGCCCAATAAGTGAATTAAATAAGTGATTGATAAATAAGTGATTGATAAGTTGATTAAATAGTTGGAAGTTATGTTTGGTAGATTGATGG
With B2, the binding result in series [3] is on record as “binds”.

B3: S160 with 3' end double-stranded (mixed)
DNA 1: B2 DNA
DNA 2: CCATCAATCTACCAAACATAACTTCCATCA
On to B3, for which, in series [4], the binding result is “binds”.
